Data: patent US20190077860A1 (EISAI R AND D MANAGEMENT, published 2019)

Legend:
Assay in all cases: ELISA
[1] = target: T1, human EphA3 extracellular region-SEAP-His protein (human, UniProt P29320 21-541)
T1 construct: extracellular domain; also called hEphA3-SEAP-His
T1 sequence (looked up): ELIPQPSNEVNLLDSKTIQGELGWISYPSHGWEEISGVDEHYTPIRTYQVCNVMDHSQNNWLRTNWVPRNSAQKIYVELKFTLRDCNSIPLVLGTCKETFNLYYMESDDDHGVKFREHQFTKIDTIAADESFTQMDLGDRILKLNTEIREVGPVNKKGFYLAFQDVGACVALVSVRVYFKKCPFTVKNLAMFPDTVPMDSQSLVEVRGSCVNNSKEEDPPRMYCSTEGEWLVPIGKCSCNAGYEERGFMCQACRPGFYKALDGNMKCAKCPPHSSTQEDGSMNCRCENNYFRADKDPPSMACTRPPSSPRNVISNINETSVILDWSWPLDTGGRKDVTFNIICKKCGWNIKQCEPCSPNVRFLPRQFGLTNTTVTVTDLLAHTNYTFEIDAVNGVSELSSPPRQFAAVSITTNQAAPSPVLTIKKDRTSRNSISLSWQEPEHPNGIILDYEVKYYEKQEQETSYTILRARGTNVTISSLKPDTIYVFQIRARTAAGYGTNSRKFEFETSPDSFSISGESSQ

[2] = target: T2, human EphB3 extracellular region-SEAP-His protein (human, UniProt P54753 34-559)
T2 construct: extracellular domain; also called hEphB3-SEAP-His
T2 sequence (looked up): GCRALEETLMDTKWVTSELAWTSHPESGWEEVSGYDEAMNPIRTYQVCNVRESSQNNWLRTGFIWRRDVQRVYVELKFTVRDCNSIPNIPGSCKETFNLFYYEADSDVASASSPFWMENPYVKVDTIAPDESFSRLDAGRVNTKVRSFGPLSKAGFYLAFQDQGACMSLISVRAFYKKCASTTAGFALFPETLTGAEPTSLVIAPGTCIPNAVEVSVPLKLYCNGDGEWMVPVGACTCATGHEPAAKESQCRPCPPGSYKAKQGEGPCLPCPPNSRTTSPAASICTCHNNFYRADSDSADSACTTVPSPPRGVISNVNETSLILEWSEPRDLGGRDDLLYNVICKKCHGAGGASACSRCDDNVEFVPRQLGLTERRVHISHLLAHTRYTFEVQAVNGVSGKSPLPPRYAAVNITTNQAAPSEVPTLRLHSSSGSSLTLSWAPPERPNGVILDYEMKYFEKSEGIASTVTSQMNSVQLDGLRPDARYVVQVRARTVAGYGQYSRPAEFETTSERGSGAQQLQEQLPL

[3] = target: T3, human EphA5 extracellular region-SEAP-His protein (human, UniProt P54756 25-573)
T3 construct: extracellular domain; also called hEphA5-SEAP-His
T3 sequence (P54756 25-573): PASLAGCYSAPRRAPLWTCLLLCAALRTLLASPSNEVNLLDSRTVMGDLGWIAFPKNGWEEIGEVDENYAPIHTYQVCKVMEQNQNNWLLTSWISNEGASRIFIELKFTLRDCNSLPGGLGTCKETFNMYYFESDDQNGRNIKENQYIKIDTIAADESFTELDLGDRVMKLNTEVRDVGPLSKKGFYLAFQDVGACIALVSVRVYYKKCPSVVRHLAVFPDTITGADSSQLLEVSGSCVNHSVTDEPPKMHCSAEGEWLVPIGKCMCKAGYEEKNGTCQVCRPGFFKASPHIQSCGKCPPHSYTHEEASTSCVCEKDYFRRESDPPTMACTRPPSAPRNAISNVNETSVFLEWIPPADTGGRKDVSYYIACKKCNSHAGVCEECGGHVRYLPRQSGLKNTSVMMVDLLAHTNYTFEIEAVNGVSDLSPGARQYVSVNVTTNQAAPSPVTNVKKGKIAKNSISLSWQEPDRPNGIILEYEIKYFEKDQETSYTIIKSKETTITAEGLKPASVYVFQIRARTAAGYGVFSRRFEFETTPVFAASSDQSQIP

[4] = target: T4, human EphA7 extracellular region-SEAP-His protein (human, UniProt Q15375 28-555)
T4 construct: extracellular domain; also called hEphA7-SEAP-His
T4 sequence (looked up): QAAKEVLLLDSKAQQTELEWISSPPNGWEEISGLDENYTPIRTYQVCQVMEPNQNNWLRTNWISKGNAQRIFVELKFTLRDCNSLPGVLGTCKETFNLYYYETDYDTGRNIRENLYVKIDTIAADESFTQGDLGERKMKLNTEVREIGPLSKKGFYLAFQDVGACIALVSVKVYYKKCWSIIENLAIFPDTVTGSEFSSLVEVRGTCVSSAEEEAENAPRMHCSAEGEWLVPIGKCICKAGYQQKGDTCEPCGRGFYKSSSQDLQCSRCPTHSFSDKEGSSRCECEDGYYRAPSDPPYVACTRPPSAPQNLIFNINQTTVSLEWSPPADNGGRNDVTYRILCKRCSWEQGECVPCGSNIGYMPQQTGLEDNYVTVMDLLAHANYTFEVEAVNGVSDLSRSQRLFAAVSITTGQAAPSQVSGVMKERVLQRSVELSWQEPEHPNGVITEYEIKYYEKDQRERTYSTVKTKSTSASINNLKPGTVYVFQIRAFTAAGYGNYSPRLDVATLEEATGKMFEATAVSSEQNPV

[5] = target: T5, human EphB4 extracellular region-SEAP-His protein (human, UniProt P54760 16-539)
T5 construct: extracellular domain; also called hEphB4-SEAP-His
T5 sequence (looked up): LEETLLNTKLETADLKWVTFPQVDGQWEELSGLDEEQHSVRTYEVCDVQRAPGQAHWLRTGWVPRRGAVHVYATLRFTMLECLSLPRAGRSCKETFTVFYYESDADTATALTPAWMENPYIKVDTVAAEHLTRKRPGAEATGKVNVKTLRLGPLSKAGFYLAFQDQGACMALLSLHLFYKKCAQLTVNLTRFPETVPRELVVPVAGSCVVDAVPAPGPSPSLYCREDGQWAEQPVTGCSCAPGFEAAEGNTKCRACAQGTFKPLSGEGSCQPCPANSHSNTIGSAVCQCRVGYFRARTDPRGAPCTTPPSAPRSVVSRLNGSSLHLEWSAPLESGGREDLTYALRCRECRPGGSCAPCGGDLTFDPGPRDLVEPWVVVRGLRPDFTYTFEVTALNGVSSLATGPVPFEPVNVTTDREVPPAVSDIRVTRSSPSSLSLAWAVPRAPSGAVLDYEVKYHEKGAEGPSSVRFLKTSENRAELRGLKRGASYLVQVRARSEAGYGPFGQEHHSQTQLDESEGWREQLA

B1: humanized antibody No. 145 (antibody, human IgG2)
heavy: QVQLVQSGSELKKPGASVKVSCKASGYTFTDYSMHWVRQAPGQGLKWMGWINTETGEPTYADDFKGRFVFSLDTSVSTAYLQISSLKAEDTAVYYCARIPLYYYGSRYWYFDVWGQGTTVTVSSASTKGPSVFPLAPSSRSTSESTAALGCLVKDYFPEPVTVSWNSGALTSGVHTFPAVLQSSGLYSLSSVVTVPSSNFGTQTYTCNVDHKPSNTKVDKTVERKSCVECPPCPAPPAAAPSVFLFPPKPKDTLMISRTPEVTCVVVDVSHEDPEVQFNWYVDGVEVHNAKTKPREEQFNSTFRVVSVLTVVHQDWLNGKEYKCKVSNKGLPAPIEKTISKTKGQPREPQVYTLPPSREEMTKNQVSLTCLVKGFYPSDIAVEWESNGQPENNYKTTPPMLDSDGSFFLYSKLTVDKSRWQQGNVFSCSVMHEALHNHYTQKSLSLSPG
light: DIQMTQSPSSLSASVGDRVTITCRASENIYRNLAWYQQKPGKAPKLLLYAATNLADGVPSRFSGSGSGTDYTLTISSLQSEDFATYYCQHFWGTPWTFGQGTKVEIKRTVAAPSVFIFPPSDEQLKSGTASVVCLLNNFYPREAKVQWKVDNALQSGNSQESVTEQDSKDSTYSLSSTLTLSKADYEKHKVYACEVTHQGLSSPVTKSFNRGEC
notes: human Ig kappa; also called L1-5/HK2
A450 as % of hEphA4-SEAP-His [1]: 6.6% | A450 as % of hEphA4-SEAP-His [2]: 6.7% | A450 as % of hEphA4-SEAP-His [3]: 6.6% | A450 as % of hEphA4-SEAP-His [4]: 6.3% | A450 as % of hEphA4-SEAP-His [5]: 6.7%

B2: humanized antibody No. 152 (antibody, human IgG2)
heavy: QVQLVQSGSELKKPGASVKVSCKASGYTFTDYSMHWVRQAPGQGLEWMGWINTETGEPTYAQGFTGRFVFSLDTSVSTAYLQISSLKAEDTAVYYCARIPLYYYGSRYWYFDVWGQGTTVTVSSASTKGPSVFPLAPSSRSTSESTAALGCLVKDYFPEPVTVSWNSGALTSGVHTFPAVLQSSGLYSLSSVVTVPSSNFGTQTYTCNVDHKPSNTKVDKTVERKSCVECPPCPAPPAAAPSVFLFPPKPKDTLMISRTPEVTCVVVDVSHEDPEVQFNWYVDGVEVHNAKTKPREEQFNSTFRVVSVLTVVHQDWLNGKEYKCKVSNKGLPAPIEKTISKTKGQPREPQVYTLPPSREEMTKNQVSLTCLVKGFYPSDIAVEWESNGQPENNYKTTPPMLDSDGSFFLYSKLTVDKSRWQQGNVFSCSVMHEALHNHYTQKSLSLSPG
light: DIQMTQSPSSLSASVGDRVTITCRASENIYRNLAWYQQKPGKAPKLLLYAATNLADGVPSRFSGSGSGTDYTLTISSLQSEDFATYYCQHFWGTPWTFGQGTKVEIKRTVAAPSVFIFPPSDEQLKSGTASVVCLLNNFYPREAKVQWKVDNALQSGNSQESVTEQDSKDSTYSLSSTLTLSKADYEKHKVYACEVTHQGLSSPVTKSFNRGEC
notes: human Ig kappa; also called L1-5/HA1
A450 as % of hEphA4-SEAP-His [1]: 5.8% | A450 as % of hEphA4-SEAP-His [2]: 6% | A450 as % of hEphA4-SEAP-His [3]: 5.8% | A450 as % of hEphA4-SEAP-His [4]: 5.7% | A450 as % of hEphA4-SEAP-His [5]: 5.9%

B3: humanized antibody No. 151 (antibody, human IgG2)
heavy: QIQLVQSGSELKKPGASVKVSCKASGYTFTDYSMHWVRQAPGQGLKWMGWINTETGEPTYAQGFTGRFVFSLDTSVSTAYLQISSLKAEDTAVYYCARIPLYYYGSRYWYFDVWGQGTTVTVSSASTKGPSVFPLAPSSRSTSESTAALGCLVKDYFPEPVTVSWNSGALTSGVHTFPAVLQSSGLYSLSSVVTVPSSNFGTQTYTCNVDHKPSNTKVDKTVERKSCVECPPCPAPPAAAPSVFLFPPKPKDTLMISRTPEVTCVVVDVSHEDPEVQFNWYVDGVEVHNAKTKPREEQFNSTFRVVSVLTVVHQDWLNGKEYKCKVSNKGLPAPIEKTISKTKGQPREPQVYTLPPSREEMTKNQVSLTCLVKGFYPSDIAVEWESNGQPENNYKTTPPMLDSDGSFFLYSKLTVDKSRWQQGNVFSCSVMHEALHNHYTQKSLSLSPG
light: DIQMTQSPSSLSASVGDRVTITCRASENIYRNLAWYQQKPGKAPKLLLYAATNLADGVPSRFSGSGSGTDYTLTISSLQSEDFATYYCQHFWGTPWTFGQGTKVEIKRTVAAPSVFIFPPSDEQLKSGTASVVCLLNNFYPREAKVQWKVDNALQSGNSQESVTEQDSKDSTYSLSSTLTLSKADYEKHKVYACEVTHQGLSSPVTKSFNRGEC
notes: human Ig kappa; also called L1-5/HA4
A450 as % of hEphA4-SEAP-His [1]: 6.9% | A450 as % of hEphA4-SEAP-His [2]: 7.3% | A450 as % of hEphA4-SEAP-His [3]: 7% | A450 as % of hEphA4-SEAP-His [4]: 6.8% | A450 as % of hEphA4-SEAP-His [5]: 7.4%

B4: humanized antibody No. 153 (antibody, human IgG2)
heavy: QVQLVQSGSELKKPGASVKVSCKASGYTFTDYSMHWVRQAPGQGLKWMGWINTETGEPTYAQGFTGRFVFSLDTSVSTAYLQISSLKAEDTAVYYCARIPLYYYGSRYWYFDVWGQGTTVTVSSASTKGPSVFPLAPSSRSTSESTAALGCLVKDYFPEPVTVSWNSGALTSGVHTFPAVLQSSGLYSLSSVVTVPSSNFGTQTYTCNVDHKPSNTKVDKTVERKSCVECPPCPAPPAAAPSVFLFPPKPKDTLMISRTPEVTCVVVDVSHEDPEVQFNWYVDGVEVHNAKTKPREEQFNSTFRVVSVLTVVHQDWLNGKEYKCKVSNKGLPAPIEKTISKTKGQPREPQVYTLPPSREEMTKNQVSLTCLVKGFYPSDIAVEWESNGQPENNYKTTPPMLDSDGSFFLYSKLTVDKSRWQQGNVFSCSVMHEALHNHYTQKSLSLSPG
light: DIQMTQSPSSLSASVGDRVTITCRASENIYRNLAWYQQKPGKAPKLLLYAATNLADGVPSRFSGSGSGTDYTLTISSLQSEDFATYYCQHFWGTPWTFGQGTKVEIKRTVAAPSVFIFPPSDEQLKSGTASVVCLLNNFYPREAKVQWKVDNALQSGNSQESVTEQDSKDSTYSLSSTLTLSKADYEKHKVYACEVTHQGLSSPVTKSFNRGEC
notes: human Ig kappa; also called L1-5/HA2
A450 as % of hEphA4-SEAP-His [1]: 6.1% | A450 as % of hEphA4-SEAP-His [2]: 5.9% | A450 as % of hEphA4-SEAP-His [3]: 6.1% | A450 as % of hEphA4-SEAP-His [4]: 6.2% | A450 as % of hEphA4-SEAP-His [5]: 6%
